“And” between values parts separate entries of the source, which are not always exact repeats. Equal values may be shown once.
Assays:
[1] = molecular target: SARS-CoV-2 spike protein receptor-binding domain (RBD) (SARS-CoV-2, UniProt P0DTC2); assay: cell-based or functional assay
[2] = molecular target: T1, SARS-CoV-2 spike receptor-binding domain (SARS-CoV-2, Wuhan-Hu-1, UniProt P0DTC2); assay: SPR; Carterra LSA array, HC200M chip; IgG captured on immobilised anti-human Fc; RBD as analyte, 7-point dilution series 300 nM to 411 pM in 1x HBSTE with 0.5 mg/mL BSA; association 5 min, dissociation 11 min; one-site binding model; two independent measurements; conditions: both partners purified
T1 construct: also called RBD; SARS-CoV-2 RBD

Binder | SARS-CoV-2 pseudovirus IC50 (neutralisation, HeLa-hACE2 cells); pair blocked: ACE2 with RBD [1] | Kd [2]
#41 (antibody, V domains shown) VH: QVQLVQSGAEVKKPGASVKVSCKVSGYTSPATIHWVRQAPGKGLEWMGGISPYKGDTIYAQKFQGRVTMTEDTSTDTAYMELSSLKSEDTAVYYCAKDSYYYDSSGSGLGGGFDYWGQGTLVTVSS VL: DIQMTQSPSSVSASVGDRVTITCRASRDISSYLAWYQQKPGKAPKLLIYGASTRASGVPSRFSGSGSGTDFTLTISSLQPEDFANYYCLQYSIYPWTFGGGTKVEIK [#41, listing 1 of 2 here] | 3.7 ng/mL | –
#41 (antibody, V domains shown) VH: QVQLVQSGAEVKKPGASVKVSCKVSGYTSPATIHWVRQAPGKGLEWMGGISPYKGDTIYAQKFQGRVTMTEDTSTDTAYMELSSLKSEDTAVYYCAKDSYYYDSSGSGLGGGFDYWGQGTLVTVSS VL: DIQMTQSPSSVSASVGDRVTITCRASRDISSYLAWYQQKPGKAPKLLIYGASTRASGVPSRFSGSGSGTDFTLTISSLQPEDFANYYCLQYSIYPWTFGGGTKVEIK [#41, listing 2 of 2 here] | – | 0.257 nM and 0.333 nM

From paper PMC8786865 (Nature Communications, 2022)
